Target: T1, p53_(125–134)/HLA-A24 pMHC, soluble recombinant (Homo sapiens, HLA-A*24:02, biotin where the biotinylated pMHC was used (site not stated))
T1 construct: HLA-A24 heavy chain (α-chain), recombinant; β2-microglobulin, recombinant; source: biotinylated or non-biotinylated; copies: + +
Experiment: ELISA; biotinylated pMHC captured on NeutrAvidin-coated wells; IgG1 in solution, detected with HRP anti-human IgG Fcγ
Conditions: both partners purified

B1: P1C1 (parental clone), human IgG1 (antibody, V domains shown)
VH: QLQLQESGPGLVKPSQTLSLTCAVSGGSISSGGYYWSWIRQRPGKGLEWIGYIYYSGSTYYNPSLKSRLTISVDTSKNQFSLKLSSVTAADTAVYYCARENFGAFDHWGQGTLVTVSS
VL: QAVLTQPSSVSGAPGQRVTISCTGSSSNIGADYETHWYQHLPGTAPKLLIYGNTNRPSGVPHRFSGSKSGTSASLAITGLQAEDEADYYCQSYDSNLSAWVFGGGTKLTIL
notes: heavy framework 1 of the parental clone; heavy CDR1 (Kabat); heavy framework 2, CDR2, framework 3; heavy CDR3 (Kabat); heavy framework 4; light framework 1 of the parental clone; light CDR1 (Kabat); light framework 2, CDR2, framework 3; light CDR3 (Kabat); light framework 4; Human IgG1; From a naive human Fab phage library (Humanyx); also called parental P1C1 antibody; source: HEK293-6E, pTT5 …
Question: Does B1 bind?
Answer: Result: binds

From article PMC6879612 (Nature Communications, 2019)
